Data on 84 variants can be found in the RNAGym collection of RNA variant scans (doi:10.1093/molbev/msab373).

To fix the notation:
B1: Azoarcus group I ribozyme (parent)
chain: GUGCCUUGCGCCGGGAAACCACGCAAGGGAUGGUGUCAAAUUCGGCGAAACCUAAGCGCCCGCCCGGGCGUAUGGCAACGCCGAGCCAAGCUUCGGCGCCUGCGCCGAUGAAGGUGUAGAGACUAGACGGCACCCACCUAAGGCAAACGCUAUGGUGAAGGCAUAGUCCAGGGAGUGGCGAAAGUCACACAAACCGG

In this series the parent is B1. The series is described as follows: reverse-splicing fitness (ratio to wild type); higher = more active; in vitro selection; Mg2+ level not given. The method in brief:
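An in vitro group I ribozyme library with randomized positions was T7-transcribed and gel-purified. In triplicate, 10 pmol RNA in EPPS pH 7.5 was reacted with 50 pmoles of a 30-nt RNA substrate for 1 h at 37 °C across several added MgCl2 levels (1–48 mM), then stopped with EDTA. Products were reverse transcribed from a substrate-complementary primer, PCR-amplified and sequenced (HiSeq 4000). Fitness is a variant's read proportion after selection over that before, normalised to wild type.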
For the variant C82G A111U A120U A145C C150A C169G U176A, the reverse-splicing fitness was found to be 0.00283.
Turning to C82A A111U A145U C150G C169A U176G, the reverse-splicing fitness was 0.00651.
Regarding C82G A111U A120U A145C C169U U176G, the reverse-splicing fitness was 0.00178.
For C82G A111C A120C A145G C150A U176C, the reverse-splicing fitness was found to be 0.0234.
The same measure for C82G A111U A120U C150U C169U U176G: 0.00215; for C82U A145U C150G C169A U176A: 0.0105.
C82A A111C A120C A145C: the reverse-splicing fitness was found to be 0.0248.
A111U A120C C150U U176A: the reverse-splicing fitness turned out to be 0.154.
Take C82U A111C A120U A145G C169A U176G: the reverse-splicing fitness stood at 0.00196.
In the case of C82G A120G A145G C169A U176A, the reverse-splicing fitness came out at 0.0185.
On to C82A A111C A120U A145U C169G U176C, for which the reverse-splicing fitness stood at 0.00308.
The same measure for C82G A111U A120C A145U C150U C169A U176C: 0.0135; for C82U A111G A120G C150U C169G U176G: 0.00447; for C82U A120G A145G C150A C169G U176A: 0.0157.
As for C82G A111U A145C C150U U176G, the reverse-splicing fitness amounted to 0.0188.
Under C82G A111G A120C A145G C169A stands 0.00771; under C82A A120C C169U U176G, 0.00416.
On to A120C C150A U176A, for which the reverse-splicing fitness was determined as 0.184.
For C82A A111C A120G A145G C150U C169G U176A, the reverse-splicing fitness was 0.0123.
Turning to C82G A111U A145G C150G C169G U176G, the reverse-splicing fitness was 0.0062.
Take C82U A111U A120G C150G: the reverse-splicing fitness was 0.00696.
Under C82U A111G A120U A145G C150G C169A U176C stands 0.00712; under C82A A111U A120G A145U C169G U176C, 0.014.
Turning to C82A A111C A145G, the reverse-splicing fitness was 0.258.
For A111U A120C A145C C169U, the reverse-splicing fitness turned out to be 0.164.
For C82U A120U A145C C150A C169G U176A, the reverse-splicing fitness was 0.00223.
Turning to C82A A111C C169G U176A, the reverse-splicing fitness was 0.0177.
Turning to C82A A111C A120U C150G U176G, the reverse-splicing fitness was 0.00249.
Consider C82A A111C A120G A145C C169U U176A, for which the reverse-splicing fitness came to 0.0138.
For the variant C82A A111G A145G C169G U176A, the reverse-splicing fitness stood at 0.0194.
For C82U A111G A145U C150U C169U, the reverse-splicing fitness was 0.0088.
Consider A111C A120G A145U C169U U176G, for which the reverse-splicing fitness stood at 0.00716.
As for A111C A120G C169G U176G, the reverse-splicing fitness was 0.00449.
Turning to C82G A111G A120C A145G C150A C169U U176G, the reverse-splicing fitness is 0.00817.
Turning to C82G A120G A145G C150G C169G U176G, the reverse-splicing fitness turned out to be 0.00567.
For the variant C82A A111C A120U A145G C150A C169A, the reverse-splicing fitness came out at 0.00708.
Take C82G A111C A120G A145U C169G U176G: the reverse-splicing fitness was 0.00458.
With C82G A111G A120C A145U C150U C169G U176A, the reverse-splicing fitness turned out to be 0.0171.
Take A111C A120C A145G C150U C169U U176A: the reverse-splicing fitness came to 0.0283.
Regarding A111G A120U A145G C150A, the reverse-splicing fitness was 0.148.
With A111C A145G C150A C169U U176C, the reverse-splicing fitness turned out to be 0.019.
C82A A111U A120C A145G C150U C169U: the reverse-splicing fitness worked out at 0.0127.
As for A111U A120U A145G C150A U176A, the reverse-splicing fitness worked out at 0.0364.
Under A111C A120U A145U C169U stands 0.0751.
Consider C82A A111C A145C C150U C169A U176G, for which the reverse-splicing fitness was 0.0095.
Regarding C82G A120G C150A C169U U176A, the reverse-splicing fitness came to 0.0248.
A111C A120G A145U C150U C169U U176G: the reverse-splicing fitness was 0.00595.
In the case of C82G A111C A120C A145C C169A, the reverse-splicing fitness stood at 0.00657.
C82U A145G C169A U176G: the reverse-splicing fitness came out at 0.00411.
Under C82A A111C A120G A145G C169A U176A stands 0.0215.
Regarding C82G A111U A120G A145U C150G C169A U176C, the reverse-splicing fitness came to 0.0114.
In the case of C82U A111C A120G A145U U176C, the reverse-splicing fitness came to 0.0192.
Regarding C82G A145G C150U U176G, the reverse-splicing fitness is 0.106.
A111U A120C A145G C169A U176C: the reverse-splicing fitness was found to be 0.0215.
As for A111C A120U A145C C150U C169G U176G, the reverse-splicing fitness is 0.00229.
With C82G A111U A120G A145U C150G U176C, the reverse-splicing fitness is 0.0104.
Regarding A111U A120U A145U C150A C169A U176A, the reverse-splicing fitness stood at 0.00284.
For C82A A120G C150G C169A U176G, the reverse-splicing fitness was 0.00619.
Turning to C82A A120G A145C C150G C169A U176A, the reverse-splicing fitness is 0.00899.
In the case of C82U A120C A145G C169U U176C, the reverse-splicing fitness was determined as 0.0171.
C82U A111C A120G A145G C150U C169U: the reverse-splicing fitness came out at 0.00958.
Under C82U A111C A120U A145C C150U U176C stands 0.00591; under A120U A145U C150A C169G U176C, 0.0122.
For the variant A111G C150A C169U, the reverse-splicing fitness is 0.0262.
With A111U A120C A145U C150U C169G, the reverse-splicing fitness was 0.00826.
Under C82U A111G A120G A145C U176C stands 0.00983; under C82A A111G A120C A145C C150U C169U U176C, 0.0102.
As for C82A A111G A120C, the reverse-splicing fitness is 0.0449.
As for A111G A120U A145C C150G C169G U176G, the reverse-splicing fitness is 0.00213.
In the case of A111C A120U A145G C150U C169G U176A, the reverse-splicing fitness came to 0.0074.
On to C82A A111C A145U C150G C169U, for which the reverse-splicing fitness amounted to 0.00887.
A111C A120C A145G C150G C169U U176C: the reverse-splicing fitness was found to be 0.0128.
C82A A120G A145G U176C: the reverse-splicing fitness stood at 0.021.
Take C82G A111C A120G A145U C150G C169U: the reverse-splicing fitness is 0.0085.
With C82A A111G A145G C169G, the reverse-splicing fitness is 0.00988.
The same measure for C82G A111C A120U A145C C169U U176C: 0.00289; for C82G A111C A120U A145C C169U U176G: 0.00214.
For C82G A111C C150G C169U U176A, the reverse-splicing fitness was 0.00763.
Turning to C82U A111G A120G A145C C150U C169U U176A, the reverse-splicing fitness worked out at 0.0196.
For the variant C82G A111G A120C A145U C169U U176G, the reverse-splicing fitness is 0.00484.
For C82G A111G A120C C169G U176A, the reverse-splicing fitness is 0.0164.
Consider C82G A111C A145U C150U C169A U176G, for which the reverse-splicing fitness was 0.00772.
As to C82A A111C A120G C150A, the reverse-splicing fitness stood at 0.00933.
C82U A111C A120C A145U C150U U176G: the reverse-splicing fitness was 0.00604.
